Biological target: T1, GST-TBX3(1-342) TBX3dm (human, UniProt O15119 1-342, G129A;R130S)
T1 sequence: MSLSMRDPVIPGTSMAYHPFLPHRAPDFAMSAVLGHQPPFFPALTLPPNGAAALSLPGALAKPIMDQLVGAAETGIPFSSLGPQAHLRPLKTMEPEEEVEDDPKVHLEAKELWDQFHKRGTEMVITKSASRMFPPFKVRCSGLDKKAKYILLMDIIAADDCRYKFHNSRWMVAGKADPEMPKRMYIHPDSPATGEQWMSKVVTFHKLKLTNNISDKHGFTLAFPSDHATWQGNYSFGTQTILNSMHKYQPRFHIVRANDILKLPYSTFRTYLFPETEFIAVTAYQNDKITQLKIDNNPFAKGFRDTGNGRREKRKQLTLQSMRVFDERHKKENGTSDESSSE
Assay: EMSA; 20 mM HEPES (pH not given), 100 mM KCl, 1 mM DTT, 0.25 mM EDTA, 0.01% NP-40, 1 mM MgCl2, 8% glycerol, 100 ug/ml BSA, 1 mg/ml poly(dI-dC), 15 C, 1 h; 6% gel, 1x
Conditions: protein: recombinant; tags: N-terminal GST (pGEX-2TK); label: 5' digoxigenin; blunt; self-complementary palindrome

B1: palindromic Brachyury/T-box consensus oligonucleotide (24 bp) (dsDNA)
DNA 1: AATTTCACACCTAGGTGTGAAATT
DNA 2: AATTTCACACCTAGGTGTGAAATT
binding result: no binding
